Assay results reported in paper PMC2193777.

Molecular target: strepAID (human, UniProt Q9GZX7 1-198)
Test: EMSA

strepAID, sequence (Q9GZX7 whole entry): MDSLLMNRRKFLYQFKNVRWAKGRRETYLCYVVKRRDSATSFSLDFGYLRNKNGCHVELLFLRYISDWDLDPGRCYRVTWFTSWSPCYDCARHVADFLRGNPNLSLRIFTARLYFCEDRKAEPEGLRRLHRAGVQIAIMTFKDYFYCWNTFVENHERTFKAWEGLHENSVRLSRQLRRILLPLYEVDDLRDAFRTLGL

| Binder | binding result |
| --- | --- |
| ATCGGAATGTATGAGAATAGAAGAGATAATGAATAATAGAA (ssDNA) [ssDNA (TCGend)] | binds |
| AUCGGAAUGUAUGAGAAUAGAAGAGAUAAUGAAUAAUAGAA (ssRNA) [ssRNA] | binds |
